According to the nanobody polyreactivity screen of Harvey et al. (2022):

Assay: yeast display, Sf9 membrane polyspecificity reagent, FACS + sequencing; frameworks hold sequencing errors
How it was run: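 Galactose induction of a Saccharomyces cerevisiae BJ5465 synthetic nanobody display library ran 36–48 hours. The cells were then stained for 1 hour at 4 °C with 10% biotinylated, detergent-solubilized Sf9 membrane reagent, pulled down on streptavidin microbeads and FACS-sorted into low and high (top ~1%) gates on expression and reagent-binding fluorescence. Labels for polyreactivity follow the gate of origin.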

Sequence	polyreactivity (PSR sort gate)
QVQLVESGGGLVQAGGSLRLSCAASGGTFRVYVMGWYRQAPGKERELVADISRGGGSTYYADSVKGRFTISRDNAKNTVYLQMNSLKPEDTAVYYCAARVCRYPWRASEYDYWGQGTQVTVSS	high polyreactivity
QVQLVESGGGLVQAGGSLRLSCAASGGTFRYNAKGWYRQAPGKERELFATISIRGASTYYADSVKGRITISRDNAKHSVYLQLNSLKPEDTAVFYCAAERRNSYVLLIKYNYWGQGTQVTVSS	low polyreactivity
QVQLVESGGGLVQAGGSLRLSCAASGGTFRYNAMGWYRQAPGKERELVAAISSSGGSTYYADSVKGRFTISRDNAKNTVYLQMNSLKPEDTAVYYCAAKRRRYVELDYWGQVTQVTVSS	high polyreactivity
QVQLVESGGGLVQAGGSLRLSCAASGGTFRYYAMGRYRPAPGKERDLVARIRYNGGSTYYADSVKGRFTISRDNAKNTVSLQMKSLKPEDTAVDYCAAVGRYPRTWMNYWGQGNQVTVSS	high polyreactivity
QVQLVESGGGLVQAGGSLRLSCAASGGTFRYYTMGWYRQAPGKERELVASISGGGRTYYADSVKGRFTISRDNAKITVYLQMNSLKPEDTAVYYCNARNRVYYTLSGYGYWGQGTQVTVSS	high polyreactivity
QVQLVESGGGLVQAGGSLRLSCAASGGTFSFNAMGWYRQAPGKERELVAAITQTGDGTYYADSVKGRFTISRDNAKNTVYLQMNSLKPEDTAVYYCNTDSIPYVPWFRFDYWGQGTQVTVSS	low polyreactivity
QVQLVESGGGLVQAGGSLRLSCAASGGTFSGYVMGWYRQAPGKERELVAAISRRGTTTYYADSVKGRFTISRDNAKNTVYLQMISLKPEDTAVYYCAAVTRWKRTLSSFYYWGQGTQVTVSS	high polyreactivity
QVQLVESGGGLVQAGGSLRLSCAASGGTFSRYAMGWYRQAPGKERELVAAITRSGASTFYADSVKGRFTISRDNAKNTVYLQMNSLKPEDTAVYYCAADTYVYNEYDYWGQGTQVTVSS	high polyreactivity
QVQLVESGGGLVQAGGSLRLSCAASGGTFSSNAMGWYRQAPGKERELVAAISGSGDRTYYADSVKGRFTISRDNAKNTVYLQMNSLKPEDTAVYYCAKTLHKGSRGRYNYWGQGTQVTVSS	high polyreactivity
QVQLVESGGGLVQAGGSLRLSCAASGGTFSTYAMGWYRQAPGKERELVAAISYSTGNTYYADSVKGRFTISRDNAKNTVYFQMNSLKPEDTAVYYCATLGGSQRGLGSFTRKYDYWGQGTQVTVSS	low polyreactivity
QVQLVESGGGLVQAGGSLRLSCAASGGTFSYYAMGWYRQAPGKERELVAAINWSGASTYYADSVKGRFTISRDNAKNTVYLQMNSLKPEDTAVYYCNVYLGILYKYDYWGQGTQVTVSS	low polyreactivity
QVQLVESGGGLVQAGGSLRLSCAASGGTFSYYAMGWYRQAPGKERELVAAITYSGDRTYYADSVKGRFTISRDNAKNTVFLQMNSLKPEDTAVYYCNAVRGSWYGYYYWGQGTQVTVSS	high polyreactivity
QVQLVESGGGLVQAGGSLRLSCAASGGTFTAYAMGWYRQAPGKERELVAAISASGDSTYYADSVKGRFTISRDNAKNTVYLQMNSLKPEDTAVYYCNADWYRTGRRGSDYWGQGTQVTVSS	low polyreactivity
QVQLVESGGGLVQAGGSLRLSCAASGGTFTFYAMGWYRQATGKEMELVATINWSGGSTYYADSVKGRFTISRDNAKNTVYLQMNSLKPEDTAVYYCNAAWPYKSVEYWGQGTQVTVSS	low polyreactivity
QVQLVESGGGLVQAGGSLRLSCAASGGTFTGYAMGWYRQAPGKERELVAAISYSGTRTYYADSVKGRFTISRDNAKNTVYLQMNSLKPEDTAVYYCNALYAIWHDYWGQGTQVTVSS	high polyreactivity
QVQLVESGGGLVQAGGSLRLSCAASGGTFVGYTMGWYRQAPGKERELVAGIRTRSGSTSYADSVKGRFTISRDNAKNTVYLQMNSLKPEDTAVYYCAARPYGRYPYPEYYYWGQGTQVTVSS	high polyreactivity

Sequence	polyreactivity (PSR sort gate)
QVQLVESGGGLVQAGGSLRLSCAASGGTFVYNAMGWYRQAPGKERELVAAIRVRGDTTYYADSVKGRFTISRDNAKYTVYLQMNSLKPEDTAVYYCAAYPDYSYYYWGQGTQVTVSS	high polyreactivity
QVQLVESGGGLVQAGGSLRLSCAASGGTFWIYAMGWYRQAPGKERELVAGITTSGATTYYADSVKGRFTISRDNAKNTVYLQMNSLKPEDTAVYYCAAVIRPRYYQVRPRYDYWGQGTQVTVSS	low polyreactivity
QVQLVESGGGLVQAGGSLRLSCAASGGTFYAYAMGSYRQAPGKERELVAAITNSGGSTYYADSVKGRFTISRDNAKNNVYLQMHSLKPEDTAVYYCARRRSYRDNYWGQGTQVTVSS	high polyreactivity
QVQLVESGGGLVQAGGSLRLSCAASGGTFYAYAMGWYRQAPGKERELVAAITRSGGRPYYADSVKGRVTISRDNAKNTVYLQMNSLKPEDTEVYYCAADPHHYSGLDYWGQGTHVTVSS	low polyreactivity
QVQLVESGGGLVQAGGSLRLSCAASGGTFYFNAMGWYRQAPGKERELVATIRYSGGSTYYADSVKGRFTISRDNAKNTVYLQMNSLKPEDTAVYYCNARPRYLSPYRPFKYNYWGQGTQVTVSS	high polyreactivity
QVQLVESGGGLVQAGGSLRLSCAASGGTFYFYAMGWDRQAPGKERELVAAISRSVGSTYYADSVKGRFTISRDNAKNTVYLQMNSLKPEDTAVYYCAARYTGGGIRYDYWGQGTQVTLSS	high polyreactivity
QVQLVESGGGLVQAGGSLRLSCAASGGTFYGYAAMGWYRQAPGKERELVAAISRSGGRTYYADSVKGRFTISRDNAKNTVYLQMNSLKPEDTAVYDCNVGFYPYSFLTFQGGDYWGQGTQVTVSS	high polyreactivity
QVQLVESGGGLVQAGGSLRLSCAASGGTFYGYAMGWYRQAPGKERELVAAINYRGGRTYYADSVKGRFTISRDNAKNTVYLQMNSLKPEDTAVYYCAATSYRLDGYDYWGQGTQVTVSS	high polyreactivity
QVQLVESGGGLVQAGGSLRLSCAASGGTFYGYAMGWYRQAPGKERELVAAITSGDSTNYADSVKGRFTISRDNAKNTVYLQMNNLKPEDTAVYYCAAGDPTLLNESFDYWGQGTQVTVSS	low polyreactivity
QVQLVESGGGLVQAGGSLRLSCAASGGTFYHNVMGWYRQAPGKERELVAAIRYSGGRTYYADSVKGRFTLSRDNAKNTVYLQMNSLKPEDTAVYYCAVRSYYGPFGYWGQGTQVTVSS	high polyreactivity
QVQLVESGGGLVQAGGSLRLSCAASGGTFYLNAMGWYRQAAGKERELVAGISWGGGRTYYADSVKGRFTISRDNAKNTVYLQMNSLKPEDTAVYYCAAGAWRGPYSGYYYWGQGTQVTVSS	low polyreactivity
QVQLVESGGGLVQAGGSLRLSCAASGGTFYLNAMGWYRQAPGKERELVAGITWGGGRTYYADSVKGRFTISRDNAKNTVYLQMNSLKQEDTEVYYCAAGAWRGPYSGYYYWGQGTQVTVSS	low polyreactivity
QVQLVESGGGLVQAGGSLRLSCAASGGTFYNYAMGWYRQAPGKERELVAAISTSGTSTYYADSVKGRFTISRDNAKNTVYLQMNSLKPEDTAVYYCAARGLRVSSRGYYWGQGTQVTVSS	high polyreactivity
QVQLVESGGGLVQAGGSLRLSCAASGGTFYRYAMGWYRQAPGKERELVAAISRGGSTTYADSVKGRFTISRDNAKNTVYLQMNSLKPEDTAVYYCAARYRCSLPAGLRLLGQGTQVTVSS	high polyreactivity
QVQLVESGGGLVQAGGSLRLSCAASGGTFYVNALGWYRQAAGKERELVAAISYSGGNTYYADSVKGRFTISRDNAKNTVYLQMNSLKPEDTAVYYCAGEVFPWWGDDYWGQGTQVTVSS	low polyreactivity
QVQLVESGGGLVQAGGSLRLSCAASGGTFYYYAMGWYRQAPGKERELVAAITRSGGNTYYADSVKGRFTISRDNAKNTVYLQMNSLKPEDTAVYYCAAPFVKFVGSLVYAGYDSWGQGTQVTVSS	low polyreactivity
